In publication PMC3485338:

What was measured:
[1] = biological target: T1, Spo0A-DBD-6xHis (Clostridium difficile 630Δerm) (UniProt I6ZTX1); test: EMSA; conditions: EMSA: 10 mM Tris-HCl pH 7.6, 1 mM EDTA, 50 mM NaCl, 1 mM DTT, 5% glycerol, 200 ug/mL BSA, 200 cpm/uL 32P-DNA, 20 min at 30 C; 8% native PAGE in 1x TAE
T1 sequence: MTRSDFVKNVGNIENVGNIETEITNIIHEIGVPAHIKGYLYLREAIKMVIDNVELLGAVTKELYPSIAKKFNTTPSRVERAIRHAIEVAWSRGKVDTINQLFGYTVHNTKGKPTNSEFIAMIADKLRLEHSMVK

[2] = tested on: Spo0A-DBD-6xHis (Clostridium difficile 630Δerm); test: EMSA; conditions: EMSA: 10 mM Tris-HCl pH 7.6, 1 mM EDTA, 50 mM NaCl, 1 mM DTT, 5% glycerol, 200 ug/mL BSA, 200 cpm/uL 32P-DNA, 20 min at 30 C; 8% native PAGE in 1x TAE

Row | Substance | binding signal (fold lower affinity than PabrB) [2] | further results
1 | AGGATTTTTAGTAGGATAATAGCTTTATTAAATATTTATAAAATGCTGTTATTTCGGTAGTTTCCAAGACATTACTGACTATAAGAACTAATTCTTACAATCAATAGTAAACAAAATGATTGACGATTATTGGAAACCTTGTTATGCTATGAAGGTAAGGATTTTGTCGAATAATGACGAAGAAAAATATAATTTAAACAAATAAGTATCTCTTGGGAG (double strand) [PabrB] | – | Kd [1]: < 50 nM
2 | CAATTCTGTATTCCATTTATGTATCCCTCCATAACGGTTGCTTCAATAGATCATAATTCGCCAATGACACAAAAAATCCTTTTTATTTTTCGATCTTGGCAGATTTTAATTTTAATTCAAGATATACGCGGGAATCCTTTGAATATTTGTATTTTGGATTTGTCCTGCCGTACTCCTTTGATGTATAAGAGACATCATAATGCTGTTCAAATGATCTAATGAGCTGTTCAATTTCTTCTTGTTTTCCAGCTAGCCTTACCTGTGCCACTTCGTATCCTCCGCTTTCA (double strand) [PcitG] | – | binding [1]: no binding
3 | PabrB | – | Kd [2]: < 50 nM
4 | PabrB C4A | 10 | –
5 | PabrB G2A | 10 | –
6 | PabrB G5A | 10 | –
